Measured values reported in article PMC2747274, “Structural Studies of a Four-MBT Repeat Protein MBTD1” (PLoS ONE, 2009).
Where no end group is shown, it is not given here.

Target: T1, human L3MBTL1 R467C mutant containing 3 MBT repeats (residues 200-522, 3MBT) (human)
T1 construct: also called L3MBTL1 Arg467Cys mutant; source: expressed and purified as previously described [20]
Assay: ITC; L3MBTL1 R467C mutant titrated with H4K20me2; data not shown
Settings: both partners purified

Binder: RHRK(dimethyl)VLRDN [H4K20me2 peptide (used for co-crystallisation and ITC with L3MBTL1 R467C)]
- stoichiometry N: 1
